Results published in patent publication US20260234251A1 (IMNOTECH, published 2026).

Molecular target: T1, human CD2 (cluster of differentiation 2) (human, UniProt P06729 25-351)
T1 construct: Presented on cells: human CD8+ T cells, CD2-transduced U698M B-cell lymphoma cells, Jurkat cells and human PBMCs; also called CD2 target antigen; CD2 surface marker
T1 sequence: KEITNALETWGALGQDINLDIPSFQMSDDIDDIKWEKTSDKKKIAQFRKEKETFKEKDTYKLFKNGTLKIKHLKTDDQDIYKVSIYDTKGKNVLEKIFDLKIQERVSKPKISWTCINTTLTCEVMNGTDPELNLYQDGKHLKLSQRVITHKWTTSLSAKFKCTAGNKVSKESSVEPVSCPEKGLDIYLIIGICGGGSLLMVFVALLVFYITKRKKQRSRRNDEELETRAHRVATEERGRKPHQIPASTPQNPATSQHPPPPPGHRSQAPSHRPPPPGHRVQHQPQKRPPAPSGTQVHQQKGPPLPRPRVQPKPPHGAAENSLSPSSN
Test: flow cytometry titration on human CD8+ T cells, one-site specific binding fit, triplicates
Procedure: Determined affinity binding curves for CD2-sdAb (B) at different concentrations on human CD8+ T cells. R3b23-sdAb served as a negative control for unspecific binding (A). Binding of CD2-sdAb (B) is shown as a fraction of the maximum specific binding (Bₘₐₓ) and the binding intensity of R3b23-sdAb (A) is shown via the MFI at the different concentrations. Measurements were performed in triplicates and data is depicted on a semi-logarithmic scale. The dissociation constant (Ko) for CD2 was calculated based of one-site specific binding and is 2.3×10⁻⁹ [M].

Kd: 2.3 nM
B1: anti-CD2 single domain antibody according to SEQ ID No. 18 (VHH)
VHH: QVQLQESGGGSVQPGGSLRLSCTVSGRTFSNYAVGWFRQAPGKEREFVATITGSGTAYADSVKGRFTISRDNAKNTVYLQMNSLKPEDTAVYYCAATWSSGYTFRSPTQYDYWGQGTQVTVSS
notes: also called CD2-sdAb; anti-CD2-sdAb
